Among the data in paper PMC4235346 are Kd values, retold here.

Common to all, as to assay: fluorescence anisotropy
Conditions in all cases: 10 nM labelled DNA, 10 mM HEPES pH 7.0, 60 mM NaCl, 240 mM KCl, 25 C, anaerobic, 5 mM EDTA for apo or 1.2x (InrS) / 2.2x (ZiaR) metal …

The test system of data set [1] is ZiaR (Synechocystis PCC 6803).
In data set [2] the test system is InrS (Synechocystis PCC 6803).
Data set [3] relates to InrS E95A (Synechocystis PCC 6803).
The test system of data set [4] is InrS E98A (Synechocystis PCC 6803).

zia operator-promoter (zia o/p): the Kd (usually the constant that tells how readily two partners part at equilibrium) is above 10000 nM in data set [1] (Zn(II), 2.2 molar excess, K1 (printed as >>)); above 10000 nM in data set [1] (Zn(II), 2.2 molar excess, K2 (printed as >>)); 22 nM in data set [1] (apo, 5 mM EDTA, K1 (first dimer)); 530 nM in data set [1] (apo, 5 mM EDTA, K2 (second dimer)).

Consider “TCATCAATATCCCCCCTGGGGGCATAGAATAGA (double strand) [nrsDProFA (nrsD operator-promoter)]”, for which the Kd amounted to 3100 nM in data set [2] (Cu(I), 1.2 molar excess); 3600 nM in data set [2] (Cu(II), 1.2 molar excess); 2300 nM in data set [2] (Ni(II), 1.2 molar excess); 980 nM in data set [2] (Zn(II), 1.2 molar excess); 9.4 nM in data set [2] (apo, 5 mM EDTA); 1400 nM in data set [3] (Ni(II), 1.2 molar excess). For the same substance, the Kd is 22 nM in data set [3] (apo, 5 mM EDTA); 1300 nM in data set [4] (Ni(II), 1.2 molar excess); 21 nM in data set [4] (apo, 5 mM EDTA).
